Here are results for one protein from paper PMC13233326, “Myosin forces remodel F-actin for mechanosensitive protein recognition” (Nature, 2026).

This data set deals with the molecule itself. Put plainly: cryo-EM structure; dual motor condition: GFP-tagged myosin V and myosin VI anchored to a holey carbon grid by an anti-GFP antibody, F-actin applied, then MB-ATP (20 mM MOPS pH 7.4, 5 mM MgCl2, 0.1 mM EGTA, 1 mM DTT, 1 mM ATP, 0.01% NP-40) with α-catenin ABD for 30 s before plunge freezing; 0.6 µM F-actin and 1 µM α-catenin ABD (sub-saturating); consensus map 10.4 Å, 3DVA-sorted map 12.3 Å.

B1: C-terminal actin-binding domain (ABD) of human α-catenin (amino acids 664–906) (domain or fragment, UniProt P35221 664-906, looked up)
chain: IAGQSARAIMAQLPQEQKAKIAEQVASFQEEKSKLDAEVSKWDDSGNDIIVLAKQMCMIMMEMTDFTRGKGPLKNTSDVISAAKKIAEAGSRMDKLGRTIADHCPDSACKQDLLAYLQRIALYCHQLNICSKVKAEVQNLGGELVVSGVDSAMSLIQAAKNLMNAVVQTVKASYVASTKYQKSQGMASLNLPAVSWKMKAPEKKPLVKREKQDETQTKIKRASQKKHVNPVQALSEFKAMDSI
notes: the tags were removed with TEV protease; also called α-catenin ABD; αE-catenin ABD; source: E. coli Rosetta2(DE3), purified (Ni-NTA, TEV cleavage, anion exchange, SEC); not shown: His6, N-terminal, cleaved; strep tag, N-terminal, cleaved
Regarding B1, the binding result is given as “binds”.
